Data: patent US20150140022A1 (FRAUNHOFER GESELLSCHAFT ZUR FOERDERUNG DER ANGEWANDTEN …, published 2015)

T1: CD30 (human, UniProt P28908 19-595)
T1 construct: whole, on cells; Endogenous antigen on L540 cells
T1 sequence (looked up): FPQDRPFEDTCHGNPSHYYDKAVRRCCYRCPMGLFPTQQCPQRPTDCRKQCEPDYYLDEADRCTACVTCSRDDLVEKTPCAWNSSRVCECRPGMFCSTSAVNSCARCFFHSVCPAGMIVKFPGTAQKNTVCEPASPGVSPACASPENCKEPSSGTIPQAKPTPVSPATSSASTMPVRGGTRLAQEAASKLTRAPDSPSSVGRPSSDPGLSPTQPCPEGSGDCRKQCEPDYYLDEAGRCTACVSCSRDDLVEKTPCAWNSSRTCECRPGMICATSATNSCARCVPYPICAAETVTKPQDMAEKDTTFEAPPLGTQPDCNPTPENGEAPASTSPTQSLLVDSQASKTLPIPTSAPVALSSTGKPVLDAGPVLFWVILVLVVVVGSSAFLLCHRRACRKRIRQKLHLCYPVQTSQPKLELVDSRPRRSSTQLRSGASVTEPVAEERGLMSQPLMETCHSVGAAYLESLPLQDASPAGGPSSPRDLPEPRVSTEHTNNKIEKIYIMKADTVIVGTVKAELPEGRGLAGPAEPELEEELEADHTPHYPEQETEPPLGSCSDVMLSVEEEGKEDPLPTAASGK


Experiments:
CD30 [1] = target: T1, CD30; experiment: flow cytometry on L540 cells (lacking EGFR but expressing CD30), anti-His Alexa 488 detection
CD30 [2] = target: T1, CD30; experiment: flow cytometry on L540 cells (CD30+, EGFR-), direct fluorescence
Protocol: Flow cytometry analysis was carried out after incubating 4×10⁵ cells with each fusion protein for 20 min at […] in PBS. […] As a control, scFv-Ki4-SNAP was labeled with BG-VistaGreen (black curve) and its binding activity was tested against A431, L540 and CHO-K1 cells (filled gray curves). […] As a control, scFv-Ki4-SNAP labeled with BG-Ce6 (black curve) was tested against A431, L540 and CHO-K1 cells (filled gray curves).
The binding efficiency of the labeled and unlabeled fusion proteins was determined by flow cytometry using a FACSCalibur (Becton & Dickinson, Heidelberg, Germany) and CellQuest software. […] Approximately 4×10⁵ cells were incubated in 200 μL PBS containing 0.5 μg of labeled protein for 20 min on ice. The cells were then washed twice with 1.8 mL PBS in a conventional cell washer and analyzed by flow cytometry.

binding result (CD30 [1])	Binder	binding result (CD30 [2])
no binding (tested: 0.5 µg/ml)	scFv-425-SNAP (scFv, Secreted from HEK-293T cells by an Ig kappa leader and purified by its His6 tag; not shown: SNAP-tag (hAGTm, modified human O6-alkylguanine-DNA alkyltransferase, 20 kDa)) scFv: MAQVQLQQSGAELVKPGASVKLSCKASGYTFTSHWMHWVKQRAGQGLEWIGEFNPSNGRTNYNEKFKSKATLTVDKSSSTAYMQLSSLTSEDSAVYYCASRDYDYDGRYFDYWGQGTTVTVSSGGGGSGGGGSGGGGSDIELTQSPAIMSASPGEKVTMTCSASSSVTYMYWYQQKPGSSPRLLIYDTSNLASGVPVRFSGSGSGTSYSLTISRMEAEDAATYYCQQWSSHIFTFGSGTELEIKRHHHHHH	–
–	scFv-425-SNAP-Ce6 (scFv, chlorin e6 through a benzyl-PEG24 linker (BG-PEG24-Ce6) covalently coupled to the active site of the SNAP-tag, not shown: SNAP-tag (hAGTm)) scFv: MAQVQLQQSGAELVKPGASVKLSCKASGYTFTSHWMHWVKQRAGQGLEWIGEFNPSNGRTNYNEKFKSKATLTVDKSSSTAYMQLSSLTSEDSAVYYCASRDYDYDGRYFDYWGQGTTVTVSSGGGGSGGGGSGGGGSDIELTQSPAIMSASPGEKVTMTCSASSSVTYMYWYQQKPGSSPRLLIYDTSNLASGVPVRFSGSGSGTSYSLTISRMEAEDAATYYCQQWSSHIFTFGSGTELEIKRHHHHHH	no binding (tested: 0.5 µg of labeled protein in 200 µL)
–	scFv-425-SNAP-VistaGreen (scFv, BG-Vista Green dye covalently coupled to the active site of the SNAP-tag, not shown: SNAP-tag (hAGTm)) scFv: MAQVQLQQSGAELVKPGASVKLSCKASGYTFTSHWMHWVKQRAGQGLEWIGEFNPSNGRTNYNEKFKSKATLTVDKSSSTAYMQLSSLTSEDSAVYYCASRDYDYDGRYFDYWGQGTTVTVSSGGGGSGGGGSGGGGSDIELTQSPAIMSASPGEKVTMTCSASSSVTYMYWYQQKPGSSPRLLIYDTSNLASGVPVRFSGSGSGTSYSLTISRMEAEDAATYYCQQWSSHIFTFGSGTELEIKRHHHHHH	no binding (tested: 0.5 µg of labeled protein in 200 µL)
